Measurements as given in the nanobody polyreactivity screen of Harvey et al. (2022).

Test: yeast display, Sf9 membrane polyspecificity reagent, FACS + sequencing; frameworks hold sequencing errors
In short: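 A synthetic nanobody library was expressed on Saccharomyces cerevisiae BJ5465 by galactose induction for 36–48 hours. The library was stained for 1 hour at 4 °C with 10% biotinylated, detergent-solubilized Sf9 membrane reagent and enriched with streptavidin microbeads before FACS. Low and high (top ~1%) gates were set on anti-HA fluorescence for expression and streptavidin fluorescence for reagent binding, and each polyreactivity label reflects the gate of origin.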

Sequence | polyreactivity (PSR sort gate)
QVQLVESGGGLVQAGGSLRLSCAASGRTFSRNAMGWYRQAPGKERELVATISRGGGITFYADSVKGRFTISRDNAKNTVYLQMNSLKPEDTAVYYCNADVRYVGLRRIVDYWGQGTQVTVSS | high polyreactivity
QVQLVESGGGLVQAGGSLRLSCAASGRTFSRNTMGWYRQAPGKERELVAAIRSGGRTDYADSVKGRFTISRDNAKNTVYLQMNSLKPEDTAVYYCATVAGVSRWRGGYWGQGTQVTVSS | low polyreactivity
QVQLVESGGGLVQAGGSLRLSCAASGRTFSRYAMGWSRQAPGKERELVASITSRGGSTYYADSVKGRFTISRDNAKNTVYLQMNSLKPEDTAVYYCNVKPTYSTRYWEDYWGQGTQVTVSS | high polyreactivity
QVQLVESGGGLVQAGGSLRLSCAASGRTFSRYAMGWYRPAPGKERELVAAISWRGSSTYYADSVKGRFTISRDNAKNTVYLQMNSLKPEYTAVYYCNTVTYPYVPALFDYWGQGTQVTVSS | high polyreactivity
QVQLVESGGGLVQAGGSLRLSCAASGRTFSRYAMGWYRQAPGKERELVAAISRGGGSTNYADSVKGRFTISRDNAKNTVYLQMNSLKPEDTAVYYCASEYRYDWYTYGSWGQGTQVTVSS | high polyreactivity
QVQLVESGGGLVQAGGSLRLSCAASGRTFSRYAMGWYRQAPGKERELVAAISRSGGITYYADSVKGRFTISRDYAKNTVYLQMNSLKPEDTAVYYCAKVYPRVGYDYWGQGTQVTVSS | high polyreactivity
QVQLVESGGGLVQAGGSLRLSCAASGRTFSRYAMGWYRQAPGKERELVAAITRSGGSTYYADSVKGRFTISRDNAKNTVYLQMNSLKPEDTAVYYCATERNLRNYDYWGQGTQVTVSS | high polyreactivity
QVQLVESGGGLVQAGGSLRLSCAASGRTFSRYAMGWYRQAPGKERELVAAITWSGGRTYYADSVKGRFTISSDNAKNTVYLQMNSLKPEDTAVYYCAASYRCYKHADPLYNYWGQGTQVTVSS | low polyreactivity
QVQLVESGGGLVQAGGSLRLSCAASGRTFSRYAMGWYRQAPGKERELVAAITYSGGRTYYADSVKGRFTISRDNAKNTVYLQMNSLKPEDTAVYYCAKGTTSDPGYGYWGQGTQVTVSS | low polyreactivity
QVQLVESGGGLVQAGGSLRLSCAASGRTFSRYAMGWYRQSPGKERELVAAITSGGGSTYYADSVKGRFTISRDNAKNTVYLQMNSLKPEDTAVYYCAVRSAPIVYVYVASWWSLYDYWGQGTQVTVSS | low polyreactivity
QVQLVESGGGLVQAGGSLRLSCAASGRTFSRYAMGWYRRAPGKERELVAAITKSGGSTYYADSVKGRFTISRDNAKITVYLQMNSLKPEDTAVYYCAVRYGGRFFRKYDYWGQGTQVTVSS | high polyreactivity
QVQLVESGGGLVQAGGSLRLSCAASGRTFSRYVMGWYRQAPGKERELVATISRSGGSTFYADSVKGRFTISRDTAKNTVYLQMNSLKPEDTAVYYCNKKVQGYQVTYGYCGQGTQVTVSS | high polyreactivity
QVQLVESGGGLVQAGGSLRLSCAASGRTFSSNAMGWYRQAPGKERELVASISFRGGRTYYADSVKGRFTISRDNAKNTVYLQMNSLKPVDTAVYYCATAYYYFSPSRADGEYWGQGTQVTVSS | high polyreactivity
QVQLVESGGGLVQAGGSLRLSCAASGRTFSSYAMGGYRKAPGKERELVAAISKRGVRTSYADSVKGRFTISRDNAKNTVYLQMNRLKPEDTAVYYCNATLGRTTAVFKYYWGQGTQVTVSS | high polyreactivity
QVQLVESGGGLVQAGGSLRLSCAASGRTFSSYTMGWYRQAPGKEREMVAAISKSGASTYYADSVKGRFTISRDNAKNTVYLQMNSLKPEDTAVYYLAARAYPFKIDGYWGQGTQVTVSS | high polyreactivity
QVQLVESGGGLVQAGGSLRLSCAASGRTFSTNAMGLYRQAPGKEREFVAAITGSGGSTYYADSVKGRFTISRDNAKNTVYLQINSLKPEDTAVYYCAKRSAWHTYRYGYWGQGTQVTVSS | high polyreactivity
QVQLVESGGGLVQAGGSLRLSCAASGRTFSTNAMGWYRQAPGKERELVAAISASGGSTYYADSVKGRFTISRDNAKNTVYLQMNSLKPEDTAVYYCAAYPGQWRTGYDYWGQGTQVTVSS | high polyreactivity
QVQLVESGGGLVQAGGSLRLSCAASGRTFSTNAMGWYRQAPGKERELVAAITSRGGSTYYADSVKGRFTISRDNAKNTVYLQMNSLKPEDPAVYYCAVDPLYYKTHYGTLGYYYLGQGTQVTVSS | low polyreactivity
QVQLVESGGGLVQAGGSLRLSCAASGRTFSTYAMGWYRQAPGKERELFAAISSGGGRTYYADSVKGRFTISRDNAKNTVYLQMNSLKPEDTAVYYCAADRYFRSRRSYEYWGQGTQVTVSS | low polyreactivity
QVQLVESGGGLVQAGGSLRLSCAASGRTFSTYAMGWYRQATGKERELVAAIRSGGSTYYADSVKGRFTISRDNAKNTVYLQMNSLKPEDTAVYYCNALPRPSIFRYDYWGQGTQVTVSS | high polyreactivity
QVQLVESGGGLVQAGGSLRLSCAASGRTFSVNAMGWYRQAPGKEREFVAAITGSTGSTFYADSVKGRFTISRDNAKNSVYLQMNSLKPDDTAVYYCAAGPWFYYWGQGTQVTVSS | low polyreactivity
QVQLVESGGGLVQAGGSLRLSCAASGRTFSVNAMGWYRQAPGKERELVAAISWDGGSTYYADSVKGRFTISRDNAKNTVYLQMNSLKPEDTAVYYCNADYSIPGYYWPYDYWGQGTQVTVSS | low polyreactivity

Sequence | polyreactivity (PSR sort gate)
QVQLVESGGGLVQAGGSLRLSCAASGRTFSVNDMGRYRQAPGKEREMVAAISFSGGSTYYADSVKGRFTISRDDAKNTVYLQMNSLKPEDTAVYYCAAEAYPSWFYVITGFGIYDYWGQGTQVTVSS | high polyreactivity
QVQLVESGGGLVQAGGSLRLSCAASGRTFSVNDMGWYRQAPGKERELVAAISFSGGSTYYADSVKGRFTISRDNAKNTVYLQMNSLKPEDTAVYYCAAEAYPSWFYVITGFGIYDYWGQGTQVTVSS | high polyreactivity
QVQLVESGGGLVQAGGSLRLSCAASGRTFSVNDMGWYRQAPGKERELVAAISFSGGSTYYADSVKGRFTISRDNAKNTVYLQMNSLKPEDTAVYYCAARVRWWSPGGYWGQGTQVTVSS | high polyreactivity
QVQLVESGGGLVQAGGSLRLSCAASGRTFSVYAMGWYRQAPGKERELVAAIRTSGGITYYADSVKGRFTISRDNAKNTVYLQMNSLKPEDTAVYYCAAETFRPYSYTRYYYWGQGSQVTVSS | high polyreactivity
QVQLVESGGGLVQAGGSLRLSCAASGRTFSWNAMGWYRQAPGKERELVAAISNSGGSTYYADSVKGRFTISRHNAKNPVYLQMNSLKPEDTAVYYCAADDIYKYYQYYAFPYYRYDYWGQGTQVTVSS | low polyreactivity
QVQLVESGGGLVQAGGSLRLSCAASGRTFSWYAMGGYRQAPGTERELVASISRGGSKSYADSVKGRFTISRDNAKNTVYLQMNSLKPEYTAVYYCAAGGFARTISYYWGQGTQVTVSS | high polyreactivity
QVQLVESGGGLVQAGGSLRLSCAASGRTFSYNAIGWYRLAPGKERELVARISSGGSTNYADSVKGRFTISRDNAKNTVYLQMNSLKPEDTAVYYCNAVYRTYEYYWGQGTQVTVSS | high polyreactivity
QVQLVESGGGLVQAGGSLRLSCAASGRTFSYNAMGWYRQAPGKERELVASISSSGTSTSYADSVKGRFTISRDNAKNTVYLQMNSLKPEDTAVYYCATVRYPYWYSGPQNSRGYWGQGTQVTVSS | high polyreactivity
QVQLVESGGGLVQAGGSLRLSCAASGRTFSYYAMGWSRQAPGKERELVATIRFSGGGTYYADSVKGRFTISRDNAKNTVYLLMNSLKPEATAVYYCAALNYHKFAHKYDYWGQGTQVTVSS | low polyreactivity
QVQLVESGGGLVQAGGSLRLSCAASGRTFSYYAMGWYRKAPGKERELVAAFSGRGASTYYADSVKGRFTISRDNAKNTVYVQMNSLKPEDTAVYYCNAVPYYQYEYWGQGTQVTVSS | low polyreactivity
QVQLVESGGGLVQAGGSLRLSCAASGRTFSYYAMGWYRQAPGKEREFVAAISSTGTSTYYADSVKGRFTISRDTAKNTVYLQKNSLKPEDTAVYYCNARLATYRLHSKFYYWGQGTQVTVSS | high polyreactivity
QVQLVESGGGLVQAGGSLRLSCAASGRTFSYYAMGWYRQAPGKERELVAAISWRGGSTYYADSVKGRFTISRDNAKNTVYLQMNSLKPEDTAVYYCAALPRYALGEDYWGQGTQVTVSS | high polyreactivity
QVQLVESGGGLVQAGGSLRLSCAASGRTFSYYAMGWYRQAPGKERELVARITYRGGRTYYADSVKGRFTISRDNAKNTVYLQMNSLKPEDTAVYYCNADAINKRGGLDYWGQGTQVTVSS | high polyreactivity
QVQLVESGGGLVQAGGSLRLSCAASGRTFSYYAMGWYRQAPGKERSLVAAISWSGGRTYYADSVKGRFTISRDNAKNTVYLQMNSLKPEDTAVYYCAARYVYPYWYGDYYWGQGTQVTVSS | low polyreactivity
QVQLVESGGGLVQAGGSLRLSCAASGRTFSYYTMGWYRQAPGKERELVARISNRGTNTYYADSVKGRFTISRDNAKNTVYLQMNSLKPEDTAVYYCNTEDFFNVPEMDSWGQGTQVTVSS | low polyreactivity
QVQLVESGGGLVQAGGSLRLSCAASGRTFSYYVMGWYRQAAGKERELVAAISRTTRTYYADSVKGRFSISRDNAKNTVYLHMNSLKPEDTAVYYCAADFPKGHYHYWGHGTQVTVSS | high polyreactivity
QVQLVESGGGLVQAGGSLRLSCAASGRTFTFNAMGWYRQAPGKETELVAAISTSGGSTYYADSVKGRFTISRDNAKNTVYLQMNSLKPEDTAVYYCNTYPYYRAGGSDYWGQGTQVTVSS | high polyreactivity
QVQLVESGGGLVQAGGSLRLSCAASGRTFTFYTMGWYRQAPGKERELVAAITSGGSTYYADSVKGRFTISRDNAKNTVYLQMNSLKPEDTAVYYCAAKYYYTYYYWGQGTQVTVSS | high polyreactivity
QVQLVESGGGLVQAGGSLRLSCAASGRTFTGNTMGWYRQAPGKERELVAAISSSGGRTYYADSVKGRFTISRDNAKNTVYLQMNSLKQVDTAVYYCNATIWRTQYGYWGQGTQVTVSS | high polyreactivity
QVQLVESGGGLVQAGGSLRLSCAASGRTFTGNVMGWYIKAPGKERELVAAISRSGTSTYYADSVKGRFTISRDNAKNTVYLQMNSRKPEDTAVYYCAARRTAGYRSAEYDYWGQGTQVTVSS | high polyreactivity
QVQLVESGGGLVQAGGSLRLSCAASGRTFTGYAMGWYRQAPGKERELVAAISSRVGSTYYADSVKGRFTISRDNAKNTVYLQMNSLKPEDTAVYYCAKDSQSYTREAYYYWGQGTQVTVSS | low polyreactivity
